Measurements reported in patent US20260258115A1.
Positions count from the first letter of the chain named.

B1: ADI-41231 (antibody, V domains shown)
VH: QVQLVQSGAEVKKPGESLKISCKGSGYSFTNNWVGWVRQMPGKGLEWMGIIFPGDSDTRYSPSFRGQVTISVDTSINTAFLQWNSLGASDTAMYYCAMTDYNYSFKSWGQGTLVTVSS
VL: NFMLTQPHSVSESPGKTITISCTRSSGNIGNNYVQWYQQRPGSSFTTVIYEDYQRPSGVPDRFSGSIDSSSNSATLTISGLKTEDEADYYCQSYDSSNPYVFGTGTKVTVL
B2: ADI-41215 (antibody, V domains shown)
VH: QVQLVESGGGVVRPGGSLRLSCAASGFTFDDYGMSWVRQAPGKGLEWVSGINWSGGSTDYADSVKGRFTISRDNAKNSLYLQMNSLRAEDTALYYCAKEGQEWELLPWYFDLWGRGTLVTVSS
VL: QPVLTQPASVSGSPGQSITIPCTGTSSDVGIYNLVSWYQQHPGKAPKLMIYDVSKRPSGVSNRFSGSKSGNTASLTISGLQAEDEADYYCCSYAGGSTYVFGTGTKLTVL
B3: ADI-41230 (antibody, V domains shown)
VH: QVQLVQSGAEVKKPGESLKISCKASGYSFTSHYWIGWVRQMPGKGLEWMGFIFPGDSDTRYSPSLQGQVTISADKSTNTAYLQWNSLKASDTAMYYCARLEYLVSGFEYWGQGTLVTVSS
VL: QPGLTQPHSVSESPGKTVTISCTRSSGSIASNYVHWYQQRPGSFPTTVIYEDNQRPSGVPDRFSGSIDSSSNSASLTISGLRTEDEADYYCQSYDSSNPVVFGGGTKVTVL
B4: ADI-41224 (antibody, V domains shown)
VH: EVQLVETGGGLVQPGRSLRLSCTASGFTFGDYAMNWVRQAPGKGLEWIGIIRTKTYGGTTEYAASVKGRFTISRDDSKGIAYLQMNSLKTEDTGVYYCTMPVLNMDVWGQGTTVTVSS
VL: QPVLTQPHSVSESPGKTVTISCTRNIGNIASNYVQWYQQRPGSSPTTVIYEDNQRPSGVPDRFSGSIDISSNSASLTISGLKTEDEADYYCQSYDSNNPWVFGGGTQLTVL
B5: ADI-41212 (antibody, V domains shown)
VH: EVQLLESGAEVKKPGASVKVSCKASGYTFTDYYIHWVRQAPGQGLEWMGRINPKNGDAIYAQNFQGRVTMTRDTSISTAYMEVSRLTSDDTAVYYCARDQMWLVLDYWGQGTLVTVSS
VL: QSALTQPASVSGSPGQSITISCTGTSSDVGGYDYVSWYQQHPGKAPKLMIHDVTNRPSGISHRFSGSKSGNTASLTISGLQAGDEADYYCSSYTRSNTKVFGTGTKVTVL
B6: ADI-41228 (antibody, V domains shown)
VH: EVQLLESGPGLVKPSETLSLTCTVSGGSISSYQWNWIRQPPGKGLEWLGYVYYSGSTNYNPSLKSRVTLSVDTSKNQFSLKLSSVTAADTAVYYCARDRRDGSFVFDYWGQGTLVTVSS
VL: B5 VL with A3V, T5I, D33N, H51Y, T54S, H62N, G83E, R95S, N97T, K99L
B7: ADI-41214 (antibody, V domains shown)
VH: EVQLVESGGGLVQPGGSLRLSCAASGFTFSSYWMSWVRQAPGKGLEWVATIKQDGSEKYSVDSVKGRFTISRDNPKKSLYLQMNSLRAEDTAVYYCARDYRVEYYHSSDKLKRYYYYGMDVWGQGTTVTVSS
VL: DIRVTQSPSSLSASVGDRVTITCRASQSISTYLNWYQQKPGKAPKFLIYAASSLESGVPSRFSGSGSGTDFSLTISSLQPEDFATYYCQQSYSIPITFGQGTRLEIK
B8: ADI-41213 (antibody, V domains shown)
VH: EVQLVESGGGLIQPGGSLRLSCAASGFTVSSNYMSWVRQAAGKGLEWVSLIYSGDSTYYADSVKGRFTISRDNSQNTLYLQMNSLRAEDTAVYYCARDASPNVGYYGMDVWGQGTTVTVSS
VL: DIVLTQPPSVSVSPGQTASITCSGGKLGDTYACWYQQKPGQSPVLVIYQDSKRPSGIPERFSGSNSGNTATLTISGTQAMDEADYYCQAWDSSTARYVFGTGTKVTVL
B9: ADI-41207 (antibody, V domains shown)
VH: QVQLVQSGPALVKPTQTLTLTCTFSGFSLSTKGMCVSWIRQPPGKALEWLALIDWDDDKFYSTSLKTRLTISKDTSKNQVVLTMTNMDPVDTATYYCARTLYFYGSGSLSDYCFDYWGQGTPVTVSS
VL: QPVLTQPRSVSGSPGQSVTISCTGTSRDVGNYNFVSWYQQHPGKAPKLIIYDVTKRPSGVPDRFSGSKSGNTASLTISGLQAEDEADYYCCSYAGTYTWVFGGGTKVTVL
B10: ADI-41225 (antibody, V domains shown)
VH: EVQLVESGGGLVKPGGSLRLSCAASGFSLSDYYMTWLRQAPGKGLEWVSSIGTTSTYTNYAESVKDRFTISRDNAKNSLYLQMNSLRAEDTAVYYCARDWGFGVERGYFDLWGRGTLVTVSS
VL: DIVLTQTPSTLSASVGDRVTITCRASQSISFWLAWYQQKPGKAPKLLIYKASTLESGVPSRFSGRGSGTDFTLTISSLQPDDFATYYCQQYNTYTWTFGQGTKVEIK
B11: ADI-41205 (antibody, V domains shown)
VH: QVQLQESGPGLVKPSGTLSLTCAVSGGSISSTNWWSWVRQPPGKGLEWIGEIYHSGSTNYNPSLKSRVTISVDKSNNQFSLNLSSVTAADTAVYYCARGVITYRGSWFLQYFDYWGQGTLVTVSS
VL: DIRVTQSPDSLAVSLGERATINCKSSQSLFYSSNNQNYLAWYQQKPGQPPKLLIYWASTRQSGVPHRFSGSGSGTDFTLTISSLQAEDVAVYYCQQYYSSPLTFGGGTKVEIK

molecular target: Respiratory Syncytial Virus fusion glycoprotein (RSV F) on RSV-A2 virus (Respiratory Syncytial Virus subtype A (RSV-A2)); experiment: cell-based or functional assay

Compared with B1, B2 is lower in Neutralization IC50 (RSV subtype A): over 25 µg/mL for the first, 0.32 µg/mL for the second.

Compared with B3, B4 is 190-fold lower in Neutralization IC50 (RSV subtype A): 24.1 µg/mL for the first, 0.13 µg/mL for the second.

B5 and B6 cannot be ordered by Neutralization IC50 (RSV subtype A): over 25 µg/mL for the first, over 25 µg/mL for the second.

B7 and B8 cannot be ordered by Neutralization IC50 (RSV subtype A): over 25 µg/mL for the first, over 25 µg/mL for the second.

B9 and B10 cannot be ordered by Neutralization IC50 (RSV subtype A): over 25 µg/mL for the first, over 25 µg/mL for the second.

Work on B11 yielded a Neutralization IC50 (RSV subtype A) of over 25 µg/mL.

molecular target: RSV postfusion F (postF), F deltaFP (Respiratory Syncytial Virus); experiment: BLI, IgG on anti-human IgG sensor, 100 nM antigen

B1 and B2 are within 1.5-fold of each other in Kd: 0.426 nM for the first, 0.563 nM for the second.

B3 and B4 are within 1.5-fold of each other in Kd: 0.407 nM for the first, 0.558 nM for the second.

Going from B5 to B6, the Kd rises from 0.4 nM to 0.618 nM (1.5-fold).

Going from B7 to B8, the Kd falls from 1.02 nM to 0.577 nM (1.8-fold).

First: B9
Second: B10
The Kd of the first is 1.7-fold lower: 0.438 nM for the first, 0.733 nM for the second. The first binds more tightly here.

For B11, the Kd was 0.536 nM.

molecular target: RSV prefusion F (preF), DS-Cav1 (Respiratory Syncytial Virus); experiment: BLI, IgG on anti-human IgG sensor, 100 nM antigen

Going from B1 to B2, the Kd falls from 3.05 nM to 0.437 nM (7-fold).

Compared with B3, B4 is 3.5-fold lower in Kd: 1.83 nM for the first, 0.524 nM for the second. The second binds more tightly here.

First: B5
Second: B6
The Kd of the first is 1.5-fold lower: 3.18 nM for the first, 4.86 nM for the second.

Compared with B7, B8 is 1.6-fold lower in Kd: 5.7 nM for the first, 3.47 nM for the second. The second binds more tightly here.

First: B9
Second: B10
The Kd of the first is 1.6-fold lower: 2.53 nM for the first, 4.15 nM for the second. The first binds more tightly here.

Work on B11 yielded a Kd of 1.16 nM.
